Common to all, as to test: FRET or BRET
In experiment [1] the target is CaGpi2-His6 (C. albicans Gpi2, GPI-GnT subunit, tagged with His6 at the C-terminus) (C. albicans) (UniProt Q5A6L6).
Experiment [2] has as its target CaGpi3 (C. albicans Gpi3, GPI-GnT subunit) (C. albicans (endogenous in BWP17-derived cells)).
Experiment [3] addresses CaGpi8 (C. albicans Gpi8, subunit of the GPI-transamidase) (C. albicans (endogenous in the cells)).

We go through two molecules from doi:10.1101/2024.11.16.623920.

As for “CaRas1 (C. albicans Ras1) (natural protein)”, the spatial distance r (AP-FRET) in experiment [1] is 5.3 nm.

B1: CaArv1-V5 (C. albicans Arv1 tagged with V5 at its C-terminus) (natural protein)
chain: MICIECGYSNIDCLYSKYKSDYIKLSVCPECNKIADKYIEYDSVILFLDILLLKRQAYKHLAYNLTEMEMEIGSSTNFHINDNTNFKFFHTYRKLMKLIFMILSFEVYLTWANEEKLLIHSQLINLIFNQSVVYQYLFFIIKSSLENLILNLSLQLILRLGYKWGQGPQKINGNIRDKELFGYKTSVLLVTTMVSGSIRLFPILMFIWPYDNISITKPLINLIAFINIVEALRVVTSLGYVELILSLAFSIVIRNIVSKSLLVLIVRLFLDFNFTEVYYNEMYQLYSQIQTYIRWI
Consider B1, for which the spatial distance r (AP-FRET) in experiment [2] is 6.3 nm; in experiment [3] it was more than 10 nm.
